Three molecules from patent US20220227866A1 (VELOSBIO, published 2022) can be followed below.

“And” between values parts separate entries of the source, which are not always exact repeats. Equal entries are not always repeated.

The target of assay [1] is T1, recombinant human ROR1 extracellular domain (human, UniProt Q01973 30-406).
T1 construct: Bought (Acro Biosystems cat. R01-H522Y); whole entry named; also called ROR1-ECD; immobilized ROR1
Nature of the assay: ELISA, immobilised ROR1 ECD, antibody titrated. How it is done:
(§1) A 96-well Costar-3366 plate was coated with 50 μL/well of 2 μg/mL […] (Acro Biosystems cat. #R01-H522Y) in PBS overnight at 4° C. The plate was rinsed once with PBS containing 0.05% Tween 20 (PBS-T) and blocked with 100 μL/well of 5% non-fat milk in PBS (5% M-P) for 1 h at 25° C. Antibody samples were serially diluted 2-fold using 5% M-P and were incubated for 1 h at 25° C. (50 μL/well). The plate was washed three times with PBS-T and 50 μL/well anti-human kappa, HRP conjugate (Southern Biotech cat. #2060-05) diluted 10,000-fold in 5% M-P was added for 1 h at 25° C. The plate was washed three times with PBS-T, developed with 50 μL/well 1-Step Ultra TMB-ELISA (Thermo Scientific cat. #34028). The reaction was terminated by the addition of 2 N H₂SO₄ and the A450 was determined using a Spectramax plate reader.
(§2) Next, the binding of bispecific binding molecules to ROR was characterized by ELISA using recombinantly-expressed extracellular domain of RORL. ROR was immobilized on a microtiter plate, the bispecific binding molecules were titrated, and binding was quantitated with an anti-human kappa-HRP reagent. Consistent with the cell binding data, all constructs bound ROR1 in a concentration-dependent manner (FIG. 6). Moreover, monovalent ROR1 constructs 13-15 bound less tightly than all but two of the bivalent constructs.
On the technique in general: An ELISA detects its analyte on a solid surface through an enzyme-linked reagent.

The target of assay [2] is T2, soluble biotinylated human ROR1 extracellular domain (human, UniProt Q01973 30-406, biotinylated with EZ-Link Sulfo-NHS-LC-Biotin at a 1:5 molar ratio).
T2 construct: Acro Biosystems cat; whole entry named; also called b-ROR1; soluble b-ROR1
T2 sequence (Q01973 30-406 limits assumed): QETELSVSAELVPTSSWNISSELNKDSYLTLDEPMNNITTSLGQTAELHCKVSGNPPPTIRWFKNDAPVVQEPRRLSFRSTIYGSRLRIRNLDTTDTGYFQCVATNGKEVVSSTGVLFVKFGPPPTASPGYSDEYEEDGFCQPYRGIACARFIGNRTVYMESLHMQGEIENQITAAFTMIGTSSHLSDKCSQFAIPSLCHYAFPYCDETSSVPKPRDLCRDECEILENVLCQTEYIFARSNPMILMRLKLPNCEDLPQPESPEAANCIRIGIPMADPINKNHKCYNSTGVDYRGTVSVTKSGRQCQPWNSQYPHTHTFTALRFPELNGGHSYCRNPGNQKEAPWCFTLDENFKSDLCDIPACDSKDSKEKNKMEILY
The assay is described as follows: ELISA, captured antibody, biotinylated ROR1 titrated. How it is done:
(§3) To measure the binding of bispecific constructs to soluble ROR1, a 96-well Costar-3366 plate was coated with 50 μL/well of 2 μg/mL goat anti-human kappa (Southern Biotech cat. #2060-01) in PBS overnight at 4° C. The plate was rinsed once with PBS-T, blocked with 100 μL/well 5% M-P for 1 h at 25° C., rinsed once with PBS-T, and 2 μg/mL of the bispecific binding molecule was added and incubated for 1 h at 25° C. The plate was washed three times with PBS-T. Biotinylated ROR1 was diluted serially, 3-fold in 5% M-P and was incubated for 1 h at 25° C. (50 μL/well). The plate was washed three times with PBS-T. To detect the binding of b-ROR1, 50 μL/well Neutravidin-HRP (Pierce cat. #31030) diluted 1:5000 in 1% BSA-PBS was added for 1 h at 25° C. […] The reaction was terminated by the addition of 2 N H₂SO₄ and the A450 was determined using a Spectramax plate reader.
(§4) The stronger binding observed with bivalent constructs versus monovalent constructs in cell assays and ELISAs in which the antigen is immobilized is consistent with an avidity effect. To determine if this was the case, binding to soluble monomeric ROR1 was assessed by immobilizing the bispecific binding molecules on a microtiter plate coated with goat anti-human kappa antibody and titrating biotinylated RORL. […]

In assay [3] the target is T3, human ROR1 on cells (human, UniProt Q01973 30-937). The assay is described as follows: cell-based or functional assay.
T3 sequence (Q01973 30-937 limits assumed): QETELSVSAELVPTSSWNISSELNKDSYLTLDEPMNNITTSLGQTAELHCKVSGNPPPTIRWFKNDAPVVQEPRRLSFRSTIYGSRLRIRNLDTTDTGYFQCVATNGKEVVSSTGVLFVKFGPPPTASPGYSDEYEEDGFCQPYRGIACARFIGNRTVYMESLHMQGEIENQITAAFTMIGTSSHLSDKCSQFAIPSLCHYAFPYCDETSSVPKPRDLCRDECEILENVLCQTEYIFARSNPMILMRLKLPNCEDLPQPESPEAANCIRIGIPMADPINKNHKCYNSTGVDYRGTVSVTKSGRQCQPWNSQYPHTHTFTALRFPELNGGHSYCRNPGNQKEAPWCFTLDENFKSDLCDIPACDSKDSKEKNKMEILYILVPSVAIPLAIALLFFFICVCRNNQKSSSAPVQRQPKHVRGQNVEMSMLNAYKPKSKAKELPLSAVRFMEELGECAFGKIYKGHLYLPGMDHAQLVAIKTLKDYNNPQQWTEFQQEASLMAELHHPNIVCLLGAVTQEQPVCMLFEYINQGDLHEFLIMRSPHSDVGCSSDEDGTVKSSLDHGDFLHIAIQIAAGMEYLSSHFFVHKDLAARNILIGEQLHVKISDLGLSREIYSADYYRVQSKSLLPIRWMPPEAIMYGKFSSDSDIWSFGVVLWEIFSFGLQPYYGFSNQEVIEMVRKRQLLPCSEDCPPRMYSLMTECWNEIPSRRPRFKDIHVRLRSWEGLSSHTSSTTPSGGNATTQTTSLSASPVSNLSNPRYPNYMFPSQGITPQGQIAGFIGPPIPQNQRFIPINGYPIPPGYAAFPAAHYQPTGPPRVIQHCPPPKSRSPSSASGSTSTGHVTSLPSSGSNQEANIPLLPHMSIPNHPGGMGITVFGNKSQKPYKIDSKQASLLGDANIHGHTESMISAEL
Assay [4] addresses T3, human ROR1 on cells. Nature of the assay: cell-based or functional assay. The source holds these as a separate data set.
Assay [5] has as its target T4, human CD3 on Jurkat cells (human, UniProt P09693 23-182; P04234 22-171; P07766 23-207).
T4 construct: GenBank NP_000064.1, NP_000723.1, NP_000724.1
Nature of the assay: flow cytometry on Jurkat cells. Put shortly:
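Jurkat cells (2.5E5 per condition) incubated with bispecific molecule in PBS/2% FBS on ice for 20 min, then detected with PE-labelled anti-human Fc (1:500, 20 min on ice). Cells fixed in 2% paraformaldehyde and bound antibody measured by flow cytometry.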

For assay [6], the target named is T1, recombinant human ROR1 extracellular …. Nature of the assay: ELISA, immobilised ROR1 ECD, construct titrated. How it is done:
as §1, §2

Assay [7] has as its target T2, soluble biotinylated human ROR1 …. The assay is described as follows: ELISA, captured construct, biotinylated ROR1 titrated; first of the two values given. How it is done:
as §3, §4

Assay [8] has the same target. Nature of the assay: ELISA, captured construct, biotinylated ROR1 titrated; second of the two values given. How it is done:
as §3, §4

The target of assay [9] is T3, human ROR1 on cells. The assay is described as follows: flow cytometry, ROR1-transfected MEC cells, 30 µg/mL. How it is done: Internalization of bispecific binding molecules was measured using a pulse-chase methodology that quantitates non-internalized, cell surface antibody at 0, 30, 60, 120, 180, and 240 minutes using flow cytometry. ROR1-transfected MEC cells were washed with cold PBS and resuspended at 1×10⁷ per mL in cold incubation buffer (RPMI with 2% FBS—Fisher/Gibco cat. #16140071). Then, 3.5×10⁶ cells were aliquoted to microcentrifuge tubes for each bispecific construct tested. An equal volume (350 μL) of bispecific binding molecule was combined with the cells to make a final concentration of 30 μg/mL. […] Cells and antibody were incubated on ice for 20 minutes, washed five times with 1 mL of cold FACS buffer (PBS with 2% FBS), and resuspended in 1.4 mL of incubation buffer. Subsequently, the samples were incubated at 37° C. for 0, 30, 60, 120, 180, and 240 minutes after which time 200 μL of each sample was transferred to ice to halt internalization.
Samples for each construct and timepoint were split in half (100 μL each) and spun down. Half of the samples were resuspended in 100 μL secondary antibody (goat anti-human IgG-PE, Fc-gamma specific—eBiosciences cat. #12-4998) to detect bound bispecific constructs. The other half was stained with 100 μL cocktail of UC961-PE and 4A5-AlexaFluor647. […] Subsequently, fixed cells were washed once with FACS buffer and analyzed.
A general note: Flow cytometry measures light scatter and fluorescence of single cells or particles in a stream.

The target of assay [10] is T2, soluble biotinylated human ROR1 …. Nature of the assay: ELISA, captured construct, biotinylated ROR1 titrated.

T1 sequence (Q01973 30-406 limits assumed): as the sequence (Q01973 30-406 limits assumed) above
T4 sequence (P09693 23-182 limits assumed, chain 1 of 3): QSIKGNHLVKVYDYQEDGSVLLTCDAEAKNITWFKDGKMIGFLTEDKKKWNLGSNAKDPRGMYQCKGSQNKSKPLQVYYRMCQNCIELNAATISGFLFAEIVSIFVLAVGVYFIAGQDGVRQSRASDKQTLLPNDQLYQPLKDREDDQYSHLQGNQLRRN
T4 sequence (P04234 22-171 limits assumed, chain 2 of 3): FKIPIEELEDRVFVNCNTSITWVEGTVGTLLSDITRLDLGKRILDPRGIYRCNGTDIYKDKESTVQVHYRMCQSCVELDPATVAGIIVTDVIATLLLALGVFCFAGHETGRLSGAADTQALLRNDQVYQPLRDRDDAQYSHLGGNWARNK
T4 sequence (P07766 23-207 limits assumed, chain 3 of 3): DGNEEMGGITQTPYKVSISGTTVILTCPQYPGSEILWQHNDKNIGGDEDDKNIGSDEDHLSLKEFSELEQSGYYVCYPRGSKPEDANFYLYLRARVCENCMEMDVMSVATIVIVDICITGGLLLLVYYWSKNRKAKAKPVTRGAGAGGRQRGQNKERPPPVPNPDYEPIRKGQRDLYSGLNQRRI

B1: parental anti-ROR1 IgG (Ab1) (antibody, V domains shown)
VH: QVQLQESGPGLVKPSQTLSLTCTVSGYAFTAYNIHWVRQAPGQGLEWMGSFDPYDGGSSYNQKFKDRLTISKDTSKNQVVLTMTNMDPVDTATYYCARGWYYFDYWGHGTLVTVSS
VL: DIVMTQTPLSLPVTPGEPASISCRASKSISKYLAWYQQKPGQAPRLLIYSGSTLQSGIPPRFSGSGYGTDFTLTINNIESEDAAYYFCQQHDESPYTFGEGTKVEIKR
notes: also called Control; parental IgG
With B1, the dissociation constant Kd is 0.037 nM in assay [1]; 0.158 nM and 0.145 nM in [2].

B2: Bispecific construct 9 (bispecific antibody, human IgG1, kappa)
heavy: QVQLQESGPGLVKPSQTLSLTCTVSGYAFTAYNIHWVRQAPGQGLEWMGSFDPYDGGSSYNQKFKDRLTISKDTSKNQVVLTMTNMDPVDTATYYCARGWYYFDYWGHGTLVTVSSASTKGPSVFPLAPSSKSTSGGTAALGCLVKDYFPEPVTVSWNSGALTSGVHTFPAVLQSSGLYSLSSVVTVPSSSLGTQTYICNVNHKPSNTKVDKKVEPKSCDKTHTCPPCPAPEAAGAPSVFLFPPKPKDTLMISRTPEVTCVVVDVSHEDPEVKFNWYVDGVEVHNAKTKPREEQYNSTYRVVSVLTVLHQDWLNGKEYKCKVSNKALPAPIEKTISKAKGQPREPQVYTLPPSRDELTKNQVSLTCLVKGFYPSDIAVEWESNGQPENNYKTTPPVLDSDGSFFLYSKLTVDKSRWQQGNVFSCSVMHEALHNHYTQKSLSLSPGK
light: DIVMTQTPLSLPVTPGEPASISCRASKSISKYLAWYQQKPGQAPRLLIYSGSTLQSGIPPRFSGSGYGTDFTLTINNIESEDAAYYFCQQHDESPYTFGEGTKVEIKRTVAAPSVFIFPPSDEQLKSGTASVVCLLNNFYPREAKVQWKVDNALQSGNSQESVTEQDSKDSTYSLSSTLTLSKADYEKHKVYACEVTHQGLSSPVTKSFNRGECGGGGSGGGGSEVQLVESGGGLVQPGGSLRLSCAASGFTFNTYAMNWVRQAPGKGLEWVARIRSKYNNYATYYADSVKGRFTISRDDSKNTLYLQMNSLRAEDTAVYYCVRHGNFGNSYVSYFAYWGQGTTVTVSSGGGGSGGGGSGGGGSGGGGSEIVVTQSPATLSVSPGERATLSCRSSTGAVTAANYANWVQEKPGQAFRGLIGGANKRAPGVPARFSGSLSGDEATLTISSLQSEDFAVYYCALFYSNLWVFGQGTKLEIK
notes: anti-CD3 scFv Ab10 (SP34-based); ROR1 arm Ab1; valency 2/2
For B2, in the assay with human ROR1 on cells [3], the “EC50, LDH release, ROR1-transfected MEC, one PBMC donor” value is under 0.1 ng/mL. In addition, in the assay with human ROR1 on cells [4], the “EC50, LDH release, A549” value was 9.95 ng/mL and 49.8 pM; the “EC50, LDH release, A4573” value was 9.71 ng/mL and 48.6 pM; the “EC50, LDH release, JeKo-1” value was 1.71 ng/mL and 8.5 pM; the “EC50, LDH release, MDA-MB-468” value is 5.55 ng/mL and 27.8 pM. In the assay with human ROR1 on cells [4], the “EC50, LDH release, Mino” value is 0.75 ng/mL and 3.8 pM; the “EC50, LDH release, NCI-H1975” value is 2.3 ng/mL and 11.5 pM; the “EC50, LDH release, Saos-2” value is 14.6 ng/mL and 73.2 pM; the “Max. LDH Release, Mino” value came out at 75%. Further, in assay [5], the binding result is on record as “binds”. The equilibrium dissociation constant (Kd) in assay [6] was determined as 0.158 nM. In addition, the Kd in [7] amounted to 0.268 nM. In addition, the Kd in [8] came out at 0.229 nM.

B3: Bispecific construct 13 (bispecific antibody, human IgG1, kappa)
heavy 1: not shown
heavy 2: QVQLVQSGGGVVQPGRSLRLSCKASGYTFTRYTMHWVRQAPGKGLEWIGYINPSRGYTNYNQKVKDRFTISRDNSKNTLYLQMDSLRAEDTAVYYCARYYDDHYSLDYWGQGTTVTVSSGGGGSGGGGSGGGGSGGGGSDIQMTQSPSSLSASVGDRVTITCSASSSVSYMNWYQQKPGKAPKRWIYDTSKLASGVPSRFSGSGSGTDFTFTISSLQPEDIATYYCQQWSSNPFTFGQGTKLEIKEPKSSDKTHTCPPCPAPEAAGAPSVFLFPPKPKDTLMISRTPEVTCVVVDVSHEDPEVKFNWYVDGVEVHNAKTKPREEQYNSTYRVVSVLTVLHQDWLNGKEYKCKVSNKALPAPIEKTISKAKGQPREPQVYTLPPSRDELTKNQVSLSCAVKGFYPSDIAVEWESNGQPENNYKTTPPVLDSDGSFFLVSKLTVDKSRWQQGNVFSCSVMHEALHNHYTQKSLSLSPGK
light: DIVMTQTPLSLPVTPGEPASISCRASKSISKYLAWYQQKPGQAPRLLIYSGSTLQSGIPPRFSGSGYGTDFTLTINNIESEDAAYYFCQQHDESPYTFGEGTKVEIKRTVAAPSVFIFPPSDEQLKSGTASVVCLLNNFYPREAKVQWKVDNALQSGNSQESVTEQDSKDSTYSLSSTLTLSKADYEKHKVYACEVTHQGLSSPVTKSFNRGEC
notes: ROR1 arm Ab1; CD3 valency 1, ROR1 valency 1
B3: in the assay with human ROR1 on cells [4], the “EC50, LDH release, ROR1-transfected MEC” value was 12 ng/mL and 96 pM; the “Max. LDH Release, ROR1-transfected MEC” value turned out to be 46%. The binding result in assay [5] is on record as “binds”. Further, the Kd in assay [6] amounted to 0.194 nM. For the same molecule, the “binding extent relative to the saturated MFI of constructs 1 and 7 at time 0” value with human ROR1 on cells [9] is about 80%. Also, the equilibrium dissociation constant (Kd) in [10] was 0.226 nM.

The term Kd denotes the free concentration of one partner at which half of the binding sites on the other are occupied at equilibrium, for simple one-to-one binding.
